Data taken from patent US11906519B2, “Methods for identifying LILRB-blocking antibodies” (THE BOARD OF REGENTS OF THE UNIVERSITY OF TEXAS SYSTEM, priority 2016, dated 2024).

B1: Mut-N: N-terminal mutant of human APOE: R142A/K143A/R145A/K146A/R147A/R150A (protein)
chain: KVEQAVETEPEPELRQQTEWQSGQRWELALGRFWDYLRWVQTLSEQVQEELLSSQVTQELRALMDETMKELKAYKSELEEQLTPVAEETRARLSKELQAAQARLGADMEDVCGRLVQYRGEVQAMLGQSTEELRVRLASHLAALAAALLADADDLQKRLAVYQAGAREGAERGLSAIRERLGPLVEQGRVRAATVGSLAGQPLQERAQAWGERLRARMEEMGSRTRDRLDEVKEQVAEVRAKLEEQAQQIRLQAEAFQARLKSWFEPLVEDMQRQWAGLVEKVQAAVGTSAAPVPSDNH
B2: CCL4: CCL4 protein supplemented in co-culture media (protein, UniProt P13236 24-92, looked up)
C-C motif chemokine 4: APMGSDPPTACCFSYTARKLPRNFVVDYYETSSLCSQPAVVFQTKRSKQVCADPSESWVQEYVYDLELN
B3: mouse APOE: mouse APOE protein (protein)
chain: EGEPEVTDQLEWQSNQPWEQALNRFWDYLRWVQTLSDQVQEELQSSQVTQELTALMEDTMTEVKAYKKELEEQLGPVAEETRARLGKEVQAAQARLGADMEDLRNRLGQYRNEVHTMLGQSTEEIRARLSTHLRKMRKRLMRDAEDLQKRLAVYKAGAREGAERGVSAIRERLGPLVEQGRQRTANLGAGAAQPLRDRAQAFGDRIRGRLEEVGNQARDRLEEVREHMEEVRSKMEEQTQQIRLQAEIFQARLKGWFEPIVEDMHRQWANLMEKIQASVATNPIITPVAQENQ

Tests used:
[1] = tested on: THP-1 cells; assay: Transwell trans-endothelial migration of THP-1 cells; assay type: cell-based, human; details: 2.5 μM STAT inhibitor
[2] = target: T1, LILRB4-Fc (Homo sapiens, UniProt Q8NHJ6); assay: Surface plasmon resonance (SPR) binding of APOE to LILRB4-Fc; details: APOE 1.5625 nM to 100 nM
Text: (§1) FIGS. 25a-251—APOE binds LILRB4 and supports AML migration. FIG. 25a: As shown by analysis of the percentage of cells in the LILRB4 reporter system that are GFP^+, human serum and mouse serum specifically activate LILRB4. FIG. 25b: Recombinant APOE activates human LILRB4 and mouse PIRB in reporter systems. FIG. 25c: Serum from APOE-null mouse was unable to activate LILRB4. FIG. 25d: Lipid-reconstituted APOE (APOE-POPC) activates human LILRB4 as well as recombinant APOE in reporter systems. […] Cells stained with anti-His tag-APC served as a negative control. FIG. 25f: Binding kinetics of human APOE-3 to LILRB4-ECD-Fc were measured using surface plasmon resonance (SPR). LILRB4-ECD-Fc was immobilized on Protein A biosensor tips and incubated with APOE-3 concentrations ranging from 1.5625 nM to 100 nM. FIG. 25g: The activation of LILRB4 by APOE was reduced by mutation at N-terminal of APOE. FIG. 25h: The activation of LILRB4 by APOE was reduced by the indicated single amino acid mutation of LILRB4. FIG. 25i-FIG. 25l: APOE is necessary for LILRB4-mediated homing. Forced expression of human lilrb4 on mouse leukemia C1498 cells increases leukemia cell homing in wildtype (WT) recipient mice (n=5) (shown in FIG. 25i). Human lilrb4-expressing C1498 cells (1), but not control GFP-expressing C1498 cells (FIG. 25k), were less capable of homing in APOE-null (KO) mice (n=5) than in WT mice (n=5); Mice were sacrificed at 20 hrs after injection of leukemia cells. GFP was used to detect leukemia cells by flow cytometry.
(§2) FIGS. 29a-29g—Three APOE isoforms bind to human LILRB4. FIGS. 29a-c: Binding kinetics of APOE 2, 3, and 4 to LILRB4-Fc were measured using surface plasmon resonance (SPR). LILRB4-Fc was immobilized on Protein A biosensor tips and incubated with APOE concentrations ranging from 1.5625 nM to 100 nM. […] (FIGS. 29d-f) Binding kinetics of APOE 2, 3, and 4 to LILRB4-Fc were measured using Bio-layer Interferometry (Octet). LILRB4-Fc was immobilized on Protein A biosensor tips and incubated with APOE concentrations ranging from 44 nM to 1176 nM. […] (FIG. 29g) Binding kinetics of APOE 3 to His-LILRB4 was measured using microscale thermophoresis (MST).

[3] = target: T2, LILRB4 (Homo sapiens, UniProt Q8NHJ6); assay: LILRB4 chimeric receptor reporter cells (NFAT-GFP); assay type: cell-based; details: for Activation of LILRB4 reporter by APOE isoforms: 40 μg/ml APOEs coated on plates or soluble; for Activation of LILRB4 reporter: percentage of GFP+ reporter cells
T2 construct: fusion of the extracellular domain (ECD) of individual LILRBs and their mouse orthologues; PILRbeta part (fusion partner); expressed in transfected cells
Text: The inventors sought to determine if antagonizing LILRB4 could prevent AML development by reversing LILRB4-mediated immune inhibition. To identify potential agonists and antagonists of LILRBs, the inventors generated individual stable chimeric receptor reporter cells based on fusion of the extracellular domain (ECD) of individual LILRBs and their mouse orthologues PirB^27 and gp49B1^28, with the intracellular domain of paired immunoglobulin-like receptor β, which signals through the adaptor DAP-12 to activate NFAT promoter-driven GFP expression, as the inventors have described^2, 31. With help from this system, the inventors generated novel anti-LILRB4 blocking antibodies to further assess LILRB4-mediated signaling (FIG. 10).
(§3) Chimeric receptor reporter cells. The inventors constructed a stable chimeric receptor reporter cell system as described^2 31 to test the ability of a ligand to bind to the ECD of individual LILRBs, PirB, and gp49B1 and to trigger the activation or inhibition of the chimerically fused intracellular domain of paired immunoglobulin-like receptor β, which signals through the adaptor DAP-12 to activate the NFAT promoter. If an agonist or antagonist binds the ECD and activates or suppresses the chimeric signaling domain, an increase or decrease, respectively, in GFP expression is observed.
APOE competition assay was used to screen LILRB4 blocking antibodies. Briefly, APOE proteins were pre-coated on 96-well plate at 37° C. for 3 hrs. After 2 times washing by PBS, 2×10^4 LILRB4 reporter cells were seeded in each well; meanwhile, indicated anti-LILRB4 antibodies were added into culture media. After 16 hrs, the percentage of GFP^+ reporter cells was analysed by flow cytometry.

[4] = target: T1, LILRB4-Fc; assay: Bio-layer interferometry (Octet) binding of APOE to LILRB4-Fc; details: APOE 44 nM to 1176 nM
Protocol: as §2
Bio-layer Interferometry. Binding interactions analyses between LILRB4-Fc with APOE2, APOE3, and APOE4 were performed on the Octet RED96 (ForteBio, Pall Corporation). All interaction studies were performed with the protein A dip-and-read biosensors (ForteBio). All binding experiments were performed using the Octet Red and kinetics buffer at 30° C. LILRB4-Fc coated biosensors (25 μg/ml LILRB4-Fc was loaded for 420 s) were washed in kinetics buffer before monitoring of association (300 s) and dissociation (600 s) of APOEs. Background wavelength shifts were measured from reference sensors that were loaded only with LILRB4-Fc.

[5] = tested on: THP-1 cells; assay: APOE binding to THP-1 cells by flow cytometry; design: species or system human; details: lilrb4-knockout versus wild-type THP-1 cells
Text: as §1, with “Human lilrb4-expressing C1498 cells (1), but not control GFP-expressing C1498 cells (FIG. 25k), were less capable of homing in APOE-null (KO) mice (n=5) than in WT mice (n=5); Mice were sacrificed at 20 hrs after injection of leukemia cells. GFP was used to detect leukemia cells by flow cytometry.” left out

[6] = target: T3, gp49B1 (Mus musculus, UniProt Q64281); assay: gp49B1 chimeric receptor reporter cells; assay type: cell-based
T3 construct: PILRbeta part (fusion partner); expressed in transfected cells
T3 sequence (Q64281 24-238): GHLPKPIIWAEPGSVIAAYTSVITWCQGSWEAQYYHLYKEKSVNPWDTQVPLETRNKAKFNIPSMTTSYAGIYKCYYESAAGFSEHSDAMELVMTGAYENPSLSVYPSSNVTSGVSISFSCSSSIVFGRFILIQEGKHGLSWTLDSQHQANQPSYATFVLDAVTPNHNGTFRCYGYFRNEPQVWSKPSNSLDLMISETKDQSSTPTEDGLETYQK
Text: as §3

[7] = target: T4, PirB (Mus musculus, UniProt P97484); assay: PirB chimeric receptor reporter cells; assay type: cell-based
T4 construct: PILRbeta part (fusion partner); expressed in transfected cells
T4 sequence (P97484 25-642): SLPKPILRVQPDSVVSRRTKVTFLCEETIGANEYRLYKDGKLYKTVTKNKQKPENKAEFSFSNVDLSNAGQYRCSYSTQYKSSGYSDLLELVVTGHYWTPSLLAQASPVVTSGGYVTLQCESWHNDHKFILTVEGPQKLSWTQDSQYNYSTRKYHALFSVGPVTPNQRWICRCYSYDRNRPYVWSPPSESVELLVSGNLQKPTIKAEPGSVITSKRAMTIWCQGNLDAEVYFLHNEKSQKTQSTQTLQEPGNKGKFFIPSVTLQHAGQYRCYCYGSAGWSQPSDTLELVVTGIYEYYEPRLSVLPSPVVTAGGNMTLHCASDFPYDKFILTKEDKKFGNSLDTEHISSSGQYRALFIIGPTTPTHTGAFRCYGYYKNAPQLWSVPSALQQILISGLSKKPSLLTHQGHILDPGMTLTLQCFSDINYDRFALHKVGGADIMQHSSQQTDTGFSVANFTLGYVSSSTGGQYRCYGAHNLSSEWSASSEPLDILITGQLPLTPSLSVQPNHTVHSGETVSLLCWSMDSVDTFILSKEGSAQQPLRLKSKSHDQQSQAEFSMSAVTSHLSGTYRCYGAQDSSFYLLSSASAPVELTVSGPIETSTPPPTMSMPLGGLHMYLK
Text: as §3

[8] = tested on: T cells co-cultured with THP-1 cells; assay: Tumor cell/T cell co-culture assay; assay type: cell-based, human; details: T cells with irradiated THP-1 cells, protein supplemented
Protocol: Tumor cell/T cell co-culture assay. Human T cells isolated from health donor peripheral blood (PB009-1-0, Allcells) were co-cultured with irradiated (28 Gy) THP-1 cells in a U-bottom 96 well-plate for 3-7 days. Anti-CD3/CD28-coated beads (#11161D, Thermo Fisher), 50 U/ml recombinant human IL-2, and 5 ng/ml recombinant human IL-7 were supplemented to the medium. In some experiments, THP-1 cells were cultured in the upper chamber of transwell inserts (pore size is 3 μM, #09-761-80, Thermo Fisher) for the U-bottom 96 well-plate. For primary AML or B-ALL samples, patient CD3^+ T cells were collected and patient leukemia cells were sorted as CD33^+ and CD19^+ for AML and B-ALL, respectively.
CD8^+ T cells (5×10^4 per well) isolated from hPBMCs of a healthy donor (Interstate Blood Bank) were stimulated with anti-CD3/CD28/CD137-coated beads (11163D, Thermo Fisher) or cultured without stimulation for 2 days in a 96-well plate. Then, 5×10^3 human leukemia THP-1-Luc-GFP cells and 50 to 500 μg/ml anti-LILRB4 antibody C84 or control antibody mIgG were added. Cell numbers were determined on day 7 in triplicate wells. Anti-CD8 and anti-CD28 were used to detect human CTL cells; THP-1 cells were positive for GFP. […]

T2 sequence (Q8NHJ6 with tags, fused parts or gaps): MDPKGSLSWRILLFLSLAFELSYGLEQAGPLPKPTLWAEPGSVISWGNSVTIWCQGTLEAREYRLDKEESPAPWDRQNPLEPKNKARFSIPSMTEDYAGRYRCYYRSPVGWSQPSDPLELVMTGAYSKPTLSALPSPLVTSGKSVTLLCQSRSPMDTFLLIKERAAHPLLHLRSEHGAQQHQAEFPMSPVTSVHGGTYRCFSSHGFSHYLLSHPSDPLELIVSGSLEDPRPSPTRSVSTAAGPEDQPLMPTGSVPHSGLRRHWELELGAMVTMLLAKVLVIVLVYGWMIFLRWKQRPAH
T1 sequence (Q8NHJ6 22-259 limits assumed): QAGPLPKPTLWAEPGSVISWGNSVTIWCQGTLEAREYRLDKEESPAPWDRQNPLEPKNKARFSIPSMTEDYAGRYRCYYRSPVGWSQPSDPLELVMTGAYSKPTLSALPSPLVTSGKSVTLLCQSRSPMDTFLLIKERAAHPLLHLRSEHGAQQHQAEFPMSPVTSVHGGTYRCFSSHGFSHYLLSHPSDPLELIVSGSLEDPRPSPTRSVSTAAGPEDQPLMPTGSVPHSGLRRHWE

Molecule	Kd [2] [nM]	Activation of LILRB4 reporter by APOE isoforms [3]	Kd [4] [nM]	Activation of LILRB4 reporter [3]	other results
O=[N+]([O-])c1ccc2c(c1)S(=O)(=O)C=C2 [stattic, reference compound]					THP-1 cell transmigration across endothelial cells [1]: decreases
APOE2: isoform of human APOE, ligand of LILRB4	5.53	activate	60.7		
APOE3: isoform of human APOE, ligand of LILRB4	2.48	activate	61.7		
APOE4: isoform of human APOE, ligand of LILRB4	3.57	activate	48.4		
APOE-POPC: liposome-reconstituted APOE protein				same ability as lipid-free APOE protein	
recombinant APOE: recombinant APOE protein, isoform not stated at the place	2			activates	Binding of APOE to THP-1 cells [5]: significantly decreased; Activation of gp49B1 reporter [6]: not; Activation of mouse PirB reporter [7]: specifically activated
B1				significantly reduced	
B2					T cell proliferation in coculture [8]: suppressed
B3				can activate	
